Assay results taken from US20230399362A1 (B A I LABORATORIES, published 2023).
Square brackets hold non-standard residues; d marks the D form.

B1: Tralokinumab (antibody, V domains shown)
VH: QVQLVQSGAEVKKPGASVKVSCKASGYTFTNYGLSWVRQAPGQGLEWMGWISANNGDTNYGQEFQGRVTMTTDTSTSTAYMELRSLRSDDTAVYYCARDSSSSWARWFFDLWGRGTLVTVSS
VL: SYVLTQPPSVSVAPGKTARITCGGNIIGSKLVHWYQQKPGQAPVLVIYDDGDRPSGIPERFSGSNSGNTATLTISRVEAGDEADYYCQVWDTGSDPVVFGGGTKLTVL
B2: Compound 8 (peptide)
peptide: cyclo([dL]REPWMP)
SMILES: CSCC[C@@H]1NC(=O)[C@H](Cc2c[nH]c3ccccc23)NC(=O)[C@@H]2CCCN2C(=O)[C@H](CCC(=O)O)NC(=O)[C@H](CCCNC(=N)N)NC(=O)[C@@H](CC(C)C)NC(=O)[C@@H]2CCCN2C1=O
B3: Compound 11 (peptide)
peptide: cyclo(VP[dL][dW][dV]LRP)
SMILES: CC(C)C[C@@H]1NC(=O)[C@@H](C(C)C)NC(=O)[C@@H](Cc2c[nH]c3ccccc23)NC(=O)[C@@H](CC(C)C)NC(=O)[C@@H]2CCCN2C(=O)[C@H](C(C)C)NC(=O)[C@@H]2CCCN2C(=O)[C@H](CCCNC(=N)N)NC1=O
B4: Compound 4 (peptide)
peptide: cyclo(RE[dV]W[dP][dP])
SMILES: CC(C)[C@H]1NC(=O)[C@H](CCC(=O)O)NC(=O)[C@H](CCCNC(=N)N)NC(=O)[C@H]2CCCN2C(=O)[C@H]2CCCN2C(=O)[C@H](Cc2c[nH]c3ccccc23)NC1=O
B5: Compound 5 (peptide)
peptide: cyclo(WVRE[dP][dP])
SMILES: CC(C)[C@@H]1NC(=O)[C@H](Cc2c[nH]c3ccccc23)NC(=O)[C@H]2CCCN2C(=O)[C@H]2CCCN2C(=O)[C@H](CCC(=O)O)NC(=O)[C@H](CCCNC(=N)N)NC1=O
B6: Compound 10 (peptide)
peptide: cyclo(RDYC[dP][dW][dP])
SMILES: N=C(N)NCCC[C@@H]1NC(=O)[C@H]2CCCN2C(=O)[C@@H](Cc2c[nH]c3ccccc23)NC(=O)[C@H]2CCCN2C(=O)[C@H](CS)NC(=O)[C@H](Cc2ccc(O)cc2)NC(=O)[C@H](CC(=O)O)NC1=O
B7: Compound 7 (peptide)
peptide: cyclo(TR[dF]P[dL][dP])
SMILES: CC(C)C[C@H]1NC(=O)[C@@H]2CCCN2C(=O)[C@@H](Cc2ccccc2)NC(=O)[C@H](CCCNC(=N)N)NC(=O)[C@H]([C@@H](C)O)NC(=O)[C@H]2CCCN2C1=O
B8: Compound 9 (peptide)
peptide: cyclo([dR]L[dW]W[dT]EP)
SMILES: CC(C)C[C@@H]1NC(=O)[C@@H](CCCNC(=N)N)NC(=O)[C@@H]2CCCN2C(=O)[C@H](CCC(=O)O)NC(=O)[C@@H]([C@H](C)O)NC(=O)[C@H](Cc2c[nH]c3ccccc23)NC(=O)[C@@H](Cc2c[nH]c3ccccc23)NC1=O
B9: Compound 3 (peptide)
peptide: cyclo(E[dT][dV]W[dP][dP])
SMILES: CC(C)[C@H]1NC(=O)[C@@H]([C@H](C)O)NC(=O)[C@H](CCC(=O)O)NC(=O)[C@H]2CCCN2C(=O)[C@H]2CCCN2C(=O)[C@H](Cc2c[nH]c3ccccc23)NC1=O
B10: Compound 1 (peptide)
peptide: cyclo([dR][dF][dV]YEP)
SMILES: CC(C)[C@H]1NC(=O)[C@@H](Cc2ccccc2)NC(=O)[C@@H](CCCNC(=N)N)NC(=O)[C@@H]2CCCN2C(=O)[C@H](CCC(=O)O)NC(=O)[C@H](Cc2ccc(O)cc2)NC1=O
B11: Compound 2 (peptide)
peptide: cyclo(RT[dV]E[dF][dP])
SMILES: CC(C)[C@H]1NC(=O)[C@H]([C@@H](C)O)NC(=O)[C@H](CCCNC(=N)N)NC(=O)[C@H]2CCCN2C(=O)[C@@H](Cc2ccccc2)NC(=O)[C@H](CCC(=O)O)NC1=O
B12: Compound 6 (peptide)
peptide: cyclo(YRE[dT][dV][dP])
SMILES: CC(C)[C@H]1NC(=O)[C@@H]([C@H](C)O)NC(=O)[C@H](CCC(=O)O)NC(=O)[C@H](CCCNC(=N)N)NC(=O)[C@H](Cc2ccc(O)cc2)NC(=O)[C@H]2CCCN2C1=O

molecular target: T1, Human IL-13 with an Fc-tag (human, UniProt P35225 35-146, limits assumed); assay: SPR, BIAcore 8K plus, human IL-13-Fc immobilized on CM5, positive control
T1 construct: Immobilized on CM5 chip (about 5000 RU); also called Interleukin-13; not shown: Fc-tag
T1 sequence (P35225 35-146 limits assumed): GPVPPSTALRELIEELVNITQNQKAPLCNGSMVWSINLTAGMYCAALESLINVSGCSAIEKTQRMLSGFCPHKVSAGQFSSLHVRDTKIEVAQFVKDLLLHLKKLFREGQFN

Which Kd does the source give for B1 here?
Its Kd is 0.000309 µM.

molecular target: T1, Human IL-13 with an Fc-tag; assay: SPR, BIAcore 8K plus, human IL-13-Fc immobilized on CM5, peptide as analyte, 25 C

Which Kd does the source give for B2 here?
Its Kd is 99.5 µM.

For B3, which Kd is on record?
The Kd was 622 µM.

B4 was tested. Which Kd did it give?
The Kd was 26.2 µM.

B5 was tested. Which Kd did it give?
Its Kd is 47.1 µM.

B6 was tested. Which Kd did it give?
The Kd was 368 µM.

Which Kd does the source give for B7 here?
The Kd was 85.1 µM.

How did the Kd turn out when B8 was run?
The Kd was 337 µM.

How did the Kd turn out when B9 was run?
Its Kd is 22.8 µM.

For B10, which Kd is on record?
Its Kd is 16 µM.

Which Kd does the source give for B11 here?
Its Kd is 17.4 µM.

How did the Kd turn out when B12 was run?
Its Kd is 55.4 µM.
